Where two headings read alike, the source gives them in different places.
Legend:
MCF-7 tumor cells [1] = assay: in vitro cytotoxicity assay, inhibition of proliferation of MCF-7 tumor cells; type: cell-based; settings: Homo sapiens, MCF7, read-out: IC50 (concentration needed for 50% inhibition of cell proliferation)
Experimental: Five-thousand MCF7 cells were plated per well in a 96-well test plate in 100 ul of rich media on day 0. A shadow plate was made for each test plate, with each well of the shadow plate containing media or 3× the intended final concentration of test agent in media in each well. As a negative control, media is used. […] After making the shadow plate, 50 ul is transferred from each well of the shadow plate to the corresponding well of the test plate to generate the final concentrations of test agent in the wells of the test plate. Cell proliferation is determined by adding Dojindo CCK-8 reagent and incubating and measuring absorbance of the dye according to the manufacturer's instructions.

L929 cells = assay: 765TNFa activity assay, killing of L929 cells; type: cell-based; settings: 24 hours
Experimental: L929 cells were plated at 10,000 cells per well in two 96-well plates in their recommended growth medium with 2% fetal bovine serum. They were grown for 2 days at 37° C. in a 5% CO2 humidified atmosphere. In one plate, after the 2 days incubation 1 ug/ml final concentration actinomycin D was added; in the other plate no actinomycin D was added. 765TNFa was then added at a range of concentrations. Plates were incubated 24 hours more. Then cell viability was quantified with DOJINDO cell counting kit-8 according to manufacturer's instructions. […] These are even lower IC50s than are reported in the literature for TNF-alpha.

[2] = tested on: A-431 human epithelial carcinoma cells; assay: in vitro proliferation inhibition of A-431 cells; type: cell-based; settings: 4 days with drug
Experimental: A-431 human epithelial carcinoma cells were seeded at 5,000 cells per well in 96-well plates and grown for 1 day. A-431 cells have abundant EGF receptors. After 1 day growth, free bendamustine and 765EGF-bendamustine were added to the plate at concentrations ranging from 200 micromolar bendamstine to 6 nM and from 20 microEq/L 765EGF-bendamustine down to 0.6 nM. The plates were incubated with drug at 37 degrees C. under a humidified 5% CO2 atmosphere for 4 days, and then DOJINDO cell counting kit-8 reagent was added to wells to read proliferation. The plates were read according to manufacturer's instruction. There was a huge difference between free bendamustine and EGF-bendamustine. […] The difference in effectiveness was more than 1000-fold expressed in terms of the concentration of bendamustine groups.

IGF receptors = IGF receptors (Homo sapiens, UniProt P08069); assay: competition binding of refolded IGF fusion proteins to IGF receptors against radioactive wild type IGF; settings: Ni eluates refolded 3 hours at room temperature, read-out: approximate binding constants (KDs)
Experimental: 2 ml of each of the original Ni eluates from Example 1 was mixed with about an equal volume of 100 mM glycine, 6 M urea, pH 9.5, concentrated by ultrafiltration in a CENTRICON 3 kDa filter unit, then brought up again in that buffer and concentrated to about 420 ul. Then they were diluted to 2 mg/ml for 403IGF, 764IGF, and 765IGF, and 4 mg/ml for 784IGF and 2.4 mg/ml for 785IGF.
200 ul of each of these was mixed rapidly with 1.8 ml of refold buffer. Refold buffer was 1.4 M urea, 100 mM glycine, 0.5 M NaCl, 19% ethanol, 0.5 mM GSSG, 4 mM GSH, pH 9.5. They were refolded at room temperature for 3 hours, and then tested in a binding assay for competition binding to IGF receptors against […] radioactive wild type IGF (Perkin Elmer, Inc.) For comparison, commercial Long-R3-IGF (LR3IGF) was also tested.

[3] = type: physicochemical
Text: These smaller fragments are seen on SDS-PAGE.

[4] = target: T1, type 1 IGF receptors on MCF7 cells (Homo sapiens, UniProt P08069); assay: 765IGF binding assay to IGF-1 receptor on MCF7 cells (125I IGF-1 competition); settings: overnight at 4° C.
T1 construct: type 1 IGF receptors that are abundant on MCF7 cells; host or cells: MCF7
Experimental: Theory of assay: Radioactive ^125I labeled insulin-like growth factor-1 (IGF-1) competes with a test ligand for binding to type 1 IGF receptors that are abundant on MCF7 cells (a human breast cancer cell line) in vitro.
MCF7 cell media: 500 mL MEM, 0.01 mg/mL bovine insulin; 5 mL sodium pyruvate, 5 mL non-essential amino acids, 10 mL sodium bicarbonate, 10 mL fetal bovine serum, 5 mL penicillin/streptomycin.
MCF7 cells (ATCC HTB-22) were plated at 20,000 cells per well in a volume of 0.5 mL/well in a 48-well tissue culture plate (flat bottom with low evaporation lid) and placed in a cell culture incubator set at 37° C. with 5% CO2. After 2-3 days in culture the plates were washed 2× with 0.5 mL per well of cold binding assay buffer (100 mM Hepes-NaOH, pH 7.2; 120 mM NaCl; 5 mM KCl; 1.2 mM MgSO4; 0.1% BSA). After the final wash, 0.5 mL of binding assay buffer was added to each well and the plates are placed at 4° C. for 2 to 6 hours.
Test ligands were prepared at a concentration of 10 micromolar (long-R3-IGF) or 20 micromolar (765IGF and IGF-MTX) in 5 mM HCl in a volume of 200 ul. To determine the concentration, the molecular weight of 765IGF (9742 daltons) and long-R3-IGF (9111 daltons) are used. […]
The plates were then incubated overnight at 4° C. […] Cells were lysed with 0.5 mL 300 mM NaOH, 1% SDS and the lysates were counted on a gamma counter.

[5] = target: T2, dihydrofolate reductase (DHFR) (Homo sapiens, UniProt P00374); assay: inhibition of dihydrofolate reductase (Sigma-Aldrich assay kit); type: biochemical
T2 construct: purchased Sigma-Aldrich
T2 sequence (P00374 1-187): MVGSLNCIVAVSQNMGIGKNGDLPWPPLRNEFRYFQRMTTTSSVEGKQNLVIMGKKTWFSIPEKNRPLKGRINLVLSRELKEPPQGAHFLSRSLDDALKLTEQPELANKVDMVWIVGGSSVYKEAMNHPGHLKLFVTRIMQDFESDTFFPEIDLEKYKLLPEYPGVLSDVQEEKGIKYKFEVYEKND
Experimental: The experiments were done with the dihydrofolate reductase assay kit from Sigma-Aldrich (St. Louis, Mo., USA), according to the manufacturer's instructions. In the assay dihydrofolate reductase is mixed with pH 7.5 buffer. […] It was incubated for 30 seconds to allow inhibitor binding. Then NADPH is added to 50 uM final concentration, and then dihydrofolic acid is added to 60 uM final concentration. The reaction is monitored by measuring absorbance at 340 nm.

MCF-7 tumor cells [6] = settings: for comparison, McTavish et al., 2009; cited from earlier work

IGF receptors, sequence (P08069 31-736 limits assumed): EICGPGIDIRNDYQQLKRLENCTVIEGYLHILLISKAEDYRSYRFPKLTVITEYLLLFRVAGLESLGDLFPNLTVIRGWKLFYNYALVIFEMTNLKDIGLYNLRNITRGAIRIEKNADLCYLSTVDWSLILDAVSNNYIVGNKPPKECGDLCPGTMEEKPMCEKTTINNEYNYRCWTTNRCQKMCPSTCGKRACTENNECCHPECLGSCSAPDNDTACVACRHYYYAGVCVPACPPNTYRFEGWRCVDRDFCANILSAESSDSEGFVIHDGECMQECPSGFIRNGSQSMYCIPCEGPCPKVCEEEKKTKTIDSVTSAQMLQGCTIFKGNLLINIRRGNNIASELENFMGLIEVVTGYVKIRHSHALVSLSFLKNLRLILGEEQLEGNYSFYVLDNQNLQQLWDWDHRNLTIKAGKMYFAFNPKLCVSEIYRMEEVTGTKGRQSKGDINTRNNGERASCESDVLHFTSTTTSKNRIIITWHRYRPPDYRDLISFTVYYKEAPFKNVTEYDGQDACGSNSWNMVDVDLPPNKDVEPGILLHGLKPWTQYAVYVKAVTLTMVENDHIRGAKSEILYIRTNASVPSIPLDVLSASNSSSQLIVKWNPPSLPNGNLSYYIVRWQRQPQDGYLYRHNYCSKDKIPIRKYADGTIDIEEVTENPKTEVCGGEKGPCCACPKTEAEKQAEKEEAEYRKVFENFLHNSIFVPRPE
IGF receptors, sequence (P08069 741-1367 partner limits assumed): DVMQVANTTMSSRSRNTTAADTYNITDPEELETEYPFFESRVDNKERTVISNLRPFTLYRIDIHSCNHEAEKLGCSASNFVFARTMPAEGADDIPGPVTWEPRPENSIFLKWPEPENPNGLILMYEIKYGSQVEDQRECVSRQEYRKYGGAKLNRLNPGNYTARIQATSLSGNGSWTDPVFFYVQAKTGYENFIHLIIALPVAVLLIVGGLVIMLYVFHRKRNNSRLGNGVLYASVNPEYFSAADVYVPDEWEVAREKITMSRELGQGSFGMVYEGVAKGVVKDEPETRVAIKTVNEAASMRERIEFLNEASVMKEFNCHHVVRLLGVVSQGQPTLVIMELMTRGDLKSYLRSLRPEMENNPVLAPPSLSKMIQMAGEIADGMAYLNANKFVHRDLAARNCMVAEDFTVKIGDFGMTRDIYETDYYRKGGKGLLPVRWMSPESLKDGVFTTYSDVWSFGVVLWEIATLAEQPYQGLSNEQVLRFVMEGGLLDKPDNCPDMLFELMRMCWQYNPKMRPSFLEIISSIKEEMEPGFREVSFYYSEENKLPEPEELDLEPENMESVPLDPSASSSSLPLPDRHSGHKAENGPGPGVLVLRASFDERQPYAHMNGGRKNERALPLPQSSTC
T1 sequence (P08069 31-736 limits assumed): as the sequence (P08069 31-736 limits assumed) above
T1 sequence (P08069 741-1367 partner limits assumed): as the sequence (P08069 741-1367 partner limits assumed) above

CN(Cc1cnc2nc(N)nc(N)c2n1)c1ccc(C(=O)N[C@@H](CCC(=O)O)C(=O)O)cc1 [Methotrexate, methotrexate]
IC50 (MCF-7 tumor cells [1]): 88 nM

765TNFa: soluble form of tumor necrosis factor alpha fused to SEQ ID NO:1 leader, SEQ ID NO:17
IC50 for killing the cells (L929 cells; L929 cells with 1 ug/ml actinomycin): less than 79 pg/ml
IC50 for killing the cells (L929 cells; L929 cells with no actinomycin): about 70 ng/ml

Cn1c(CCCC(=O)O)nc2cc(N(CCCl)CCCl)ccc21 [bendamustine]
concentration above which proliferation was inhibited [2]: above 10 micromolar
IC50 ([2]; Homo sapiens, 96 h): ~90000 nM

B1: 764IGF: His6-K5-IGF132 fusion protein, SEQ ID NO: 18 (protein)
chain: MVKGKHHHHHHNGKGKSKFVNQHLCGSHLVEALYLVCGDRGFYFNKPTGYGSSSRRAPQTGIVDECCFRSCDLRRLEMYCAPLKPAKSA
Kd (IGF receptors): ~100 nM

B2: 403IGF: His6-IGF fusion protein, SEQ ID NO: 14 (protein)
chain: MTSGHHHHHHSAGVNGFVNQHLCGSHLVEALYLVCGDRGFYFNKPTGYGSSSRRAPQTGIVDECCFRSCDLRRLEMYCAPLKPAKSA
Kd (IGF receptors): ~2 nM

B3: IGF132: variant of IGF-1 with reduced binding to soluble IGF binding proteins, SEQ ID NO:4 (protein)
chain: FVNQHLCGSHLVEALYLVCGDRGFYFNKPTGYGSSSRRAPQTGIVDECCFRSCDLRRLEMYCAPLKPAKSA
stability to storage [3]: breaks down to produce a significant amount of smaller molecular weight fragments

B4: LR3IGF: commercial Long-R3-IGF variant of IGF-1 (Sigma Aldrich), SEQ ID NO:5 (protein)
chain: MFPAMPLSSLFVNGPRTLCGALVDALQFVCGDRGFYFNKPTGYGSSSRRAPQTGIVDECCFRSCDLRRLEMYCAPLKPAKSEA
Kd (IGF receptors): ~1 nM
Kd [4]: ~3 nM

B5: LR3IGF-MTX (conjugate)
chain: B4 chain
IC50 ([5]; DHFR, concentration of conjugated MTX groups, read-out: IC50): 99 nM
IC50 ([5]; IC50 in nEq/L divided by MTX per IGF, read-out: inhibition constant in terms of protein concentration): 35 nM
IC50 (MCF-7 tumor cells [6]): ~400 nM

B6: 785IGF: mutTrx-IGF132 fusion protein, SEQ ID NO: 16 (protein)
chain: MVKQIESKTAFQEALDAAGDKLVVVDFSATWCGHCKMIKPFFHSLSEKYSNVIFLEVDVDDSQDVASESEVKSMPTFQFFKKGQKVGEFSGANKEKLEATINELVGSKSGHHHHHHSAKGFVNQHLCGSHLVEALYLVCGDRGFYFNKPTGYGSSSRRAPQTGIVDECCFRSCDLRRLEMYCAPLKPAKSA
Kd (IGF receptors): ~40 nM
